Results reported in the supplement of paper PMC12764529.
± gives the half width of the 95% confidence interval.

Key:
[1] = folding stability dG unfold from chymotrypsin proteolysis; higher = more stable
Procedure, shortened: (§1)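 Unfolding free energy was derived, per protease or combined, against a sequence-predicted unfolded-state K50 and a shared folded-state K50, starting from K50 inferred by Bayesian fitting of sequencing counts. Digestion with trypsin and chymotrypsin was carried out on designed mini-proteins under 80 residues without cysteine in a PA-tagged cDNA display construct. Only designs with AlphaFold2 dimer inter-PAE above 15 were kept.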

[2] = folding stability dG unfold (combined trypsin and chymotrypsin); higher = more stable
Procedure, shortened: as §1

[3] = folding stability dG unfold from trypsin proteolysis; higher = more stable
Procedure, shortened: as §1

Sequence | folding stability dG unfold [1] | folding stability dG unfold [2] | folding stability dG unfold [3]
GVVRPLGDPNGQLSIVATDPEGNLLVKALVPNDEAQVEAAKKELLAAMPGLDEKEVVFSIYDPLTGKTKILS [r1_55_JUSTAS] | 1.61 ± 0.025 kcal/mol | 1.54 ± 0.12 kcal/mol | 1.07 ± 0.1 kcal/mol
GYRPALAVVELGPNSRLLLRPPEGPSVEIEVESPEEALAAALKLLPKDQPLVLEVFDEGKLIETIPIEIPPS [r1_276_TrMRF] | 1.87 ± 0.069 kcal/mol | 1.55 ± 0.095 kcal/mol | 0.973 ± 0.036 kcal/mol
IEEIKNFAKKHGFNVKIEPVKVDSEEEAKEEAEDHEKKNGYPTIIIKNPENGEIVWVIKIRPPPPPPGQPPS [r1_179_TrROS] | 3.89 ± 0.17 kcal/mol | 3.18 ± 0.31 kcal/mol | 2.51 ± 0.22 kcal/mol
IRGMPVEEIKEIARDFFRKHGMKVTTVEIVPTPNGMTQVDIEIEPPDKGRRYRIDIYVPEDGMVQIDIEPYS [r1_460_TrROS] | 2.54 ± 0.13 kcal/mol | 2.4 ± 0.24 kcal/mol | 2.23 ± 0.071 kcal/mol
IVISPSMLRDARRQGIPKELLKKAKNVIIWSSNGNPEWAKELKEWPGVKKIKPVPPGDPDKQKDADHVIHFS [r1_248_TrROS] | -0.673 ± 0.49 kcal/mol | -0.482 ± 0.29 kcal/mol | -0.554 ± 0.55 kcal/mol
KGVVVGPDEPLVSDDGKLVVFPNAQITYDPKTGKPTIAFHVDPEALAQGDPEALKGLRDLAKELNIDELTPS [r1_438_TrMRF] | 1.03 ± 0.044 kcal/mol | 0.692 ± 0.12 kcal/mol | -0.156 ± 0.1 kcal/mol
KIHILPPGEPAKDPNGKTYEFPNMRIHRNPKNGKPTIYIPMDPEARDQGNPEALQWLRELVEELNIDKVEPS [r1_438_TrROS] | 0.0516 ± 0.16 kcal/mol | -0.156 ± 0.16 kcal/mol | -0.623 ± 0.45 kcal/mol
KIWIPNASWSQIKNIIRNAIKDGKERTIWIPMDPNMKPNIIDYLKDLPGIKDVEPYPNGWVKIEIDKAELKS [r1_324_TrROS] | 3.23 ± 0.076 kcal/mol | 2.81 ± 0.18 kcal/mol | 2 ± 0.059 kcal/mol
KKITIIIPSPDGYWVVIKIEWPNGRPINVFFRSPEELLNEIQRQLGMYPENFEITDIEVMPPDDLKEAMDNS [r1_119_TrROS] | 3.39 ± 0.12 kcal/mol | 3.22 ± 0.11 kcal/mol | 2.77 ± 0.1 kcal/mol
KKITVVRPAKTLEEVEQAVRDLLKELNIPEGTKVEVKVEEIPETGAFVATVTVTLPNGEKIEVTVLFPKLFS [r1_84_TrMRF] | 2.95 ± 0.081 kcal/mol | 2.68 ± 0.09 kcal/mol | 2.26 ± 0.092 kcal/mol
KKKKPPKVVKVEIKFDKKTKKITVKVDGKTFTITLPDGKKIEITVPAGMSEEEIKALAKKLAKELEEKLKKS [r1_25_TrROS_Hall] | 1.97 ± 0.2 kcal/mol | 2.18 ± 0.55 kcal/mol | 3.73 ± 0.12 kcal/mol
KKKTIEIIFPENNLIIKIEVDEETGKELTEEEIKKLLEELFPGKDIEKMSIEEIAKRLASLPGVKKVEIYPS [r1_463_TrROS_Hall] | 1.57 ± 0.07 kcal/mol | 2.46 ± 0.1 kcal/mol | 3.19 ± 0.09 kcal/mol
KKVKIEIEVIHPGPDGWVIRAKVKYPGNNKKKEKPFFFPNPKEFVKEIANELLPKNQLDDVDIEMYPLEEFS [r1_399_TrROS] | 0.686 ± 0.14 kcal/mol | 0.875 ± 0.15 kcal/mol | 0.973 ± 0.058 kcal/mol
KMKTITITVKVPKGMKVVITLANGKKIEIEVESVEDALKKIKKLLPEGAVLRVEVVKDGKVIEEKEIVIKPS [r1_276_TrROS_Hall] | 2.96 ± 0.041 kcal/mol | 2.66 ± 0.15 kcal/mol | 2.18 ± 0.071 kcal/mol
KPKIVEKKEITIKLNGKTIKITLVKNKETGKYYAKIEIFEYDKNGKLVKKETITLEFDSLEDLLEALKKLAS [r1_288_TrROS_Hall] | 3.67 ± 0.071 kcal/mol | 3.18 ± 0.4 kcal/mol | 2.14 ± 0.091 kcal/mol
KPKLTIEYDEETGKFTITLPDGRKIEIELKKDGTVVRIRVKENGKEREIELTLDELKALLDNKDVTIEIIPS [r1_18_TrROS_Hall] | 3.45 ± 0.2 kcal/mol | 3.81 ± 0.23 kcal/mol | 3.95 ± 0.13 kcal/mol
LKITLPDGAEITEITSVSVLPNGTIKITVKVRNPATGETTTVTLTITLKPAPPPEVTIVRDAETGELKLVKS [r1_411_TrROS_Hall] | 2.14 ± 0.047 kcal/mol | 2.49 ± 0.23 kcal/mol | 2.63 ± 0.1 kcal/mol
MAIVHIDFSFPDGGPTLSFEIPVPNLGPAGEEEILERASELTGISREVIRKNTEIEPIPETGDYKVTINVSS [r1_285_JUSTAS] | 1.14 ± 0.033 kcal/mol | 1.36 ± 0.069 kcal/mol | 1.46 ± 0.033 kcal/mol
MALPERLRELTPPVPPELALEAALKRAEELGLEEVREVRVLSVTPDGYIEVEIELPEGGSVRIRIPLEDLFS [r1_435_TrMRF] | 0.608 ± 0.18 kcal/mol | 1.15 ± 0.12 kcal/mol | 1.51 ± 0.071 kcal/mol
MEEIRDLPGIKWQPIERDGDRYYWMFTIPPEQFKNNGKPPVIVMAEFEPNGKWRITPWIRPWLRKLGIEPVS [r1_256_TrROS] | 1.72 ± 0.083 kcal/mol | 1.92 ± 0.091 kcal/mol | 1.92 ± 0.049 kcal/mol
MEITTTPYTDPNSETTYWLITATLPDGRRITIVITKPAGGPWTVEVYAPDGTRISSKTYSSEEEAIEEALTS [r1_478_JUSTAS] | 3.2 ± 0.036 kcal/mol | 3.25 ± 0.052 kcal/mol | 3.3 ± 0.051 kcal/mol

Sequence | folding stability dG unfold [1] | folding stability dG unfold [2] | folding stability dG unfold [3]
MKIVEITKIEKKEDGTITITIKIEPVKKGEKLKIRIIHDGKIYEAEIDAESGTITITLPKNVKELKIYIYPS [r1_428_TrROS_Hall] | 3.46 ± 0.12 kcal/mol | 3.44 ± 0.28 kcal/mol | 3.21 ± 0.25 kcal/mol
MKVIEVPIEGLPVEEIRRVIEEAIEKAKAEGNPDVKIIVTVPGPPELVEATTAVVKEIADKGDVEVSVVALS [r1_387_JUSTAS] | 2.82 ± 0.17 kcal/mol | 3.52 ± 0.29 kcal/mol | 3.83 ± 0.36 kcal/mol
MLLEFESEEELEKAIKELIEKAKKEVEEKGKKNEELKINIPVILHDKETGKETTRPITINIKPDGKITILDS [r1_316_JUSTAS] | 1.05 ± 0.13 kcal/mol | 1.01 ± 0.23 kcal/mol | 0.953 ± 0.13 kcal/mol
MLLVKAEFTIKNSDGTEETFTVLVEVPESEEEAEEAVEKEIEKIAEEKGLSTENITEIKVEIYPPSEPVKPS [r1_159_JUSTAS] | 2.7 ± 0.077 kcal/mol | 2.48 ± 0.081 kcal/mol | 2.1 ± 0.098 kcal/mol
MLTKVSTLTREDPSTGTTTTITVYKPPDGTLIVKVTTTTYSTTPDGTVTTTTSTTTVTLPPSVDVEKVFSSS [r1_243_JUSTAS] | 3.01 ± 0.056 kcal/mol | 2.58 ± 0.12 kcal/mol | 1.76 ± 0.068 kcal/mol
MLTLPDGRPAFVRARVVLPPGVRVTVVGDIPAEELERRLGRRVTPEDIVRAVVEAARRRGLTVEAVELDLRS [r1_338_TrMRF] | 1.02 ± 0.031 kcal/mol | 1.09 ± 0.034 kcal/mol | 1.11 ± 0.013 kcal/mol
MMKVKIEVRNEENEEVLTIELEVPEGEELTEEEILDLIAERLGLSKEELRKRVRIEYDEETKRIRIEIRIES [r1_285_TrROS_Hall] | 2.27 ± 0.036 kcal/mol | 2.87 ± 0.08 kcal/mol | 3.5 ± 0.053 kcal/mol
MRTVLLPIAGLPPEQVREAIERAVRAAREAGQPDTTLIVFNPGPAEQVEETTRLVQELADEPDFTVTVIPIS [r1_387_TrMRF] | 0.0961 ± 0.12 kcal/mol | 0.382 ± 0.14 kcal/mol | 0.685 ± 0.046 kcal/mol
MTIEITIVAKTEEEAKEAAEELARKLAEELGLSEEELENLKIEVEKVEVTNEDGEKYYVVKIKIELPPEFKS [r1_81_TrROS_Hall] | 3.61 ± 0.25 kcal/mol | 3.25 ± 0.4 kcal/mol | 2.93 ± 0.38 kcal/mol
MTITVRFTFQTEEEAEKAAEEVKRKLAEELGLSEEVLKKIPVEVKRTETGSENGEPVYEVTVTFKLPEELLS [r1_81_JUSTAS] | 4.94 ± 0.084 kcal/mol | 4.84 ± 0.084 kcal/mol | 4.17 ± 0.14 kcal/mol
MTLEELKAAEGKRLEDVVTVEIVRVERDPETGEEKVVEKRTITFPPGMTLEELKALLESLPAEVRITRVRRS [r1_132_TrROS_Hall] | 2.27 ± 0.035 kcal/mol | 2.11 ± 0.11 kcal/mol | 1.85 ± 0.041 kcal/mol
MTTRTLTLTVETSSPEEAEAVREKIRAELGRPDVDVEILEVTFSPDGTVTITIRLAPGVPEERVRALLDALS [r1_485_JUSTAS] | 2.266 ± 0.0084 kcal/mol | 2.79 ± 0.034 kcal/mol | 3.37 ± 0.05 kcal/mol
MTVELETTDIEELLARIEEAAAAGKNVTVTAKPEEFEKIRAEGFKIDEILEVKPVPGDDTVVTLINISPEGS [r1_173_JUSTAS] | 0.699 ± 0.083 kcal/mol | 0.897 ± 0.085 kcal/mol | 1.11 ± 0.038 kcal/mol
MVVTVETTMIDPEGNPLTKTFTVPSSVVEALKEAGKPLTKEELEKLVKEKVEAEAKKYNVSVEVTLVSFERS [r1_174_JUSTAS] | 2.7 ± 0.066 kcal/mol | 2.6 ± 0.27 kcal/mol | 2.21 ± 0.17 kcal/mol
NKIEIKAYKIEETGEIIVEVKIEFPVYDPETKTIKPVVLTITFVGDPEKAIEAIKKFVDFYGGEIDYIDFGS [r1_488_TrMRF] | 4.5 ± 0.091 kcal/mol | 4.36 ± 0.1 kcal/mol | 2.84 ± 0.099 kcal/mol
NPIERLKEAIKNAPPGETADIPFPDGMYININIEPEREKEDGKPRRRRKIKIEIYPPDGKPLGSITLEVPYS [r1_386_TrROS] | 1.23 ± 0.11 kcal/mol | 1.36 ± 0.15 kcal/mol | 1.49 ± 0.084 kcal/mol
PANVTYEFELADGYRVRVTLNPETGTATVEVEPVPERPPVAPVFIPRTLPEEEREALRRAAEEAGLEVVVGS [r1_242_TrMRF] | 3.348 ± 0.031 kcal/mol | 3.06 ± 0.054 kcal/mol | 2.42 ± 0.036 kcal/mol
PAVPKEYTVTLPNATAKVTLEEYEDFVLATAEVTFPDGAKATVTVTLEPTPDGVKRTVTLNIPPGFGAKLGS [r1_153_TrMRF] | 1.9 ± 0.03 kcal/mol | 1.65 ± 0.06 kcal/mol | 1.17 ± 0.013 kcal/mol
PDDVYVMFEIEPTNDGIKIPIKVRVPGKPIAEVEVPVDPDDGKIKIMVKFPSPEALDEAEDLLKELGIKPTS [r1_455_TrROS] | 0.42 ± 0.12 kcal/mol | 0.537 ± 0.21 kcal/mol | 0.319 ± 0.11 kcal/mol
PIIHFRSPEDAEDFVKELVKKIAKEARKNGDPGQPYEIKIPVVWHDEDSGGPHRFPIEIEIRPDGDIKLTFS [r1_316_TrROS] | 1.76 ± 0.088 kcal/mol | 1.42 ± 0.062 kcal/mol | 0.782 ± 0.02 kcal/mol
PKPLIEIERLPEGVLRARAINPVTGAPITITVPVEPGVDGYRLLAEVEAENVPPELAVKTAETVLALLEKKS [r1_403_TrMRF] | -0.183 ± 0.33 kcal/mol | -0.0268 ± 0.26 kcal/mol | -0.115 ± 0.24 kcal/mol
